Legend:
Assay in all cases: cell-based or functional assay
[1] = target: HIV-1 Env of pseudovirus 1006_11_C3_1601 (HIV-1)
[2] = target: HIV-1 Env of pseudovirus BJOX025000.01.1 (HIV-1)
[3] = target: HIV-1 Env of pseudovirus 6545.v4.c1 (HIV-1)
[4] = target: HIV-1 Env of pseudovirus 0815.v3.c3 (HIV-1)
[5] = target: HIV-1 Env of pseudovirus BJOX009000.02.4 (HIV-1)
[6] = target: HIV-1 Env of pseudovirus SC422661.8 (HIV-1)
[7] = target: HIV-1 Env of pseudovirus 6240_08_TA5_4622 (HIV-1)
[8] = target: HIV-1 Env of pseudovirus 235-47 (HIV-1)
[9] = target: HIV-1 Env of pseudovirus Ce704809221_1B3 (HIV-1)
[10] = target: HIV-1 Env of pseudovirus 89-F1_2_25 (HIV-1)
[11] = target: HIV-1 Env of pseudovirus T250-4 (HIV-1)
[12] = target: HIV-1 Env of pseudovirus 249M B10 (HIV-1)
[13] = target: HIV-1 Env of pseudovirus 9004SS_A3_4 (HIV-1)
[14] = target: HIV-1 Env of pseudovirus 62357_14_D3_4589 (HIV-1)
[15] = target: HIV-1 Env of pseudovirus 1056_10_TA11_1826 (HIV-1)
[16] = target: HIV-1 Env of pseudovirus T251-18 (HIV-1)
[17] = target: HIV-1 Env of pseudovirus ZM233M.PB6 (HIV-1)
[18] = target: HIV-1 Env of pseudovirus CAP45.2.00.G3 (HIV-1)
[19] = target: HIV-1 Env of pseudovirus 211-9 (HIV-1)
[20] = target: HIV-1 Env of pseudovirus T255-34 (HIV-1)
[21] = target: HIV-1 Env of pseudovirus CAAN5342.A2 (HIV-1)
[22] = target: HIV-1 Env of pseudovirus CAP210.2.00.E8 (HIV-1)
[23] = target: HIV-1 Env of pseudovirus AC10.0.29 (HIV-1)
[24] = target: HIV-1 Env of pseudovirus X2131_C1_B5 (HIV-1)
[25] = target: HIV-1 Env of pseudovirus PVO.4 (HIV-1)
[26] = target: HIV-1 Env of pseudovirus CNE58 (HIV-1)
[27] = target: HIV-1 Env of pseudovirus 3103.v3.c10 (HIV-1)
[28] = target: HIV-1 Env of pseudovirus P1981_C5_3 (HIV-1)
[29] = target: HIV-1 Env of pseudovirus HIV-16055-2.3 (HIV-1)
[30] = target: HIV-1 Env of pseudovirus X2088_c9 (HIV-1)
[31] = target: HIV-1 Env of pseudovirus T278-50 (HIV-1)
[32] = target: HIV-1 Env of pseudovirus WITO4160.33 (HIV-1)
[33] = target: HIV-1 Env of pseudovirus CNE5 (HIV-1)
[34] = target: HIV-1 Env of pseudovirus CNE20 (HIV-1)
[35] = target: HIV-1 Env of pseudovirus CNE52 (HIV-1)
[36] = target: HIV-1 Env of pseudovirus WEAU_d15_410_787 (HIV-1)
[37] = target: HIV-1 Env of pseudovirus THRO4156.18 (HIV-1)
[38] = target: HIV-1 Env of pseudovirus SC05_8C11_2344 (HIV-1)
[39] = target: HIV-1 Env of pseudovirus BF1266.431a (HIV-1)
[40] = target: HIV-1 Env of pseudovirus ZM53M.PB12 (HIV-1)

354BG8 (antibody) gave an IC50 in TZM-bl assay [1] of 0.002 µg/mL, an IC80 in TZM-bl assay [1] of 0.006 µg/mL and an IC50 in TZM-bl assay [2] greater than 10 µg/mL. The IC80 in TZM-bl assay [2] was greater than 10 µg/mL, the IC50 in TZM-bl assay [3] was greater than 10 µg/mL and the IC80 in TZM-bl assay [3] was greater than 10 µg/mL. For the same substance, the IC50 in TZM-bl assay [4] was 0.043 µg/mL, the IC80 in TZM-bl assay [4] was 0.197 µg/mL and the IC50 in TZM-bl assay [5] was greater than 10 µg/mL. It also gave an IC80 in TZM-bl assay [5] greater than 10 µg/mL, an IC50 in TZM-bl assay [6] of 0.058 µg/mL and an IC80 in TZM-bl assay [6] of 0.368 µg/mL. For the same substance, the IC50 in TZM-bl assay [7] was 0.038 µg/mL, the IC80 in TZM-bl assay [7] was 0.131 µg/mL and the IC50 in TZM-bl assay [8] was 0.058 µg/mL. For the same substance, the IC80 in TZM-bl assay [8] was 0.224 µg/mL, the IC50 in TZM-bl assay [9] was 0.084 µg/mL and the IC80 in TZM-bl assay [9] was 0.395 µg/mL. The IC50 in TZM-bl assay [10] was greater than 10 µg/mL, the IC80 in TZM-bl assay [10] was greater than 10 µg/mL and the IC50 in TZM-bl assay [11] was 0.002 µg/mL. For the same substance, the IC80 in TZM-bl assay [11] was 0.005 µg/mL, the IC50 in TZM-bl assay [12] was greater than 10 µg/mL and the IC80 in TZM-bl assay [12] was greater than 10 µg/mL. It also gave an IC50 in TZM-bl assay [13] of 0.012 µg/mL, an IC80 in TZM-bl assay [13] of 0.032 µg/mL and an IC50 in TZM-bl assay [14] greater than 10 µg/mL. It also gave an IC80 in TZM-bl assay [14] greater than 10 µg/mL, an IC50 in TZM-bl assay [15] of 0.038 µg/mL and an IC80 in TZM-bl assay [15] of 0.168 µg/mL. It also gave an IC50 in TZM-bl assay [16] of 0.399 µg/mL, an IC80 in TZM-bl assay [16] of 2.29 µg/mL and an IC50 in TZM-bl assay [17] of 0.058 µg/mL. For the same substance, the IC80 in TZM-bl assay [17] was 0.371 µg/mL, the IC50 in TZM-bl assay [18] was greater than 10 µg/mL and the IC80 in TZM-bl assay [18] was greater than 10 µg/mL. It also gave an IC50 in TZM-bl assay [19] of 0.065 µg/mL, an IC80 in TZM-bl assay [19] of 0.403 µg/mL and an IC50 in TZM-bl assay [20] greater than 10 µg/mL. For the same substance, the IC80 in TZM-bl assay [20] was greater than 10 µg/mL, the IC50 in TZM-bl assay [21] was 0.005 µg/mL and the IC80 in TZM-bl assay [21] was 0.019 µg/mL. The IC50 in TZM-bl assay [22] was greater than 10 µg/mL, the IC80 in TZM-bl assay [22] was greater than 10 µg/mL and the IC50 in TZM-bl assay [23] was 0.015 µg/mL. The IC80 in TZM-bl assay [23] was 0.043 µg/mL, the IC50 in TZM-bl assay [24] was 0.014 µg/mL and the IC80 in TZM-bl assay [24] was 0.056 µg/mL. It also gave an IC50 in TZM-bl assay [25] of 0.072 µg/mL, an IC80 in TZM-bl assay [25] of 0.252 µg/mL and an IC50 in TZM-bl assay [26] of 0.165 µg/mL. It also gave an IC80 in TZM-bl assay [26] of 0.476 µg/mL, an IC50 in TZM-bl assay [27] of 0.024 µg/mL and an IC80 in TZM-bl assay [27] of 0.061 µg/mL. For the same substance, the IC50 in TZM-bl assay [28] was 0.004 µg/mL, the IC80 in TZM-bl assay [28] was 0.013 µg/mL and the IC50 in TZM-bl assay [29] was greater than 10 µg/mL. It also gave an IC80 in TZM-bl assay [29] greater than 10 µg/mL, an IC50 in TZM-bl assay [30] of 0.003 µg/mL and an IC80 in TZM-bl assay [30] of 0.01 µg/mL. For the same substance, the IC50 in TZM-bl assay [31] was 1.71 µg/mL, the IC80 in TZM-bl assay [31] was greater than 10 µg/mL and the IC50 in TZM-bl assay [32] was 0.111 µg/mL. The IC80 in TZM-bl assay [32] was 0.828 µg/mL, the IC50 in TZM-bl assay [33] was greater than 10 µg/mL and the IC80 in TZM-bl assay [33] was greater than 10 µg/mL. It also gave an IC50 in TZM-bl assay [34] of 0.002 µg/mL, an IC80 in TZM-bl assay [34] of 0.005 µg/mL and an IC50 in TZM-bl assay [35] of 1.99 µg/mL. It also gave an IC80 in TZM-bl assay [35] of 9.76 µg/mL, an IC50 in TZM-bl assay [36] of 0.031 µg/mL and an IC80 in TZM-bl assay [36] of 0.112 µg/mL. The IC50 in TZM-bl assay [37] was greater than 10 µg/mL, the IC80 in TZM-bl assay [37] was greater than 10 µg/mL and the IC50 in TZM-bl assay [38] was 0.017 µg/mL. For the same substance, the IC80 in TZM-bl assay [38] was 0.048 µg/mL, the IC50 in TZM-bl assay [39] was greater than 10 µg/mL and the IC80 in TZM-bl assay [39] was greater than 10 µg/mL. For the same substance, the IC50 in TZM-bl assay [40] was greater than 10 µg/mL and the IC80 in TZM-bl assay [40] was greater than 10 µg/mL.
